We go through 15 molecules from patent USRE48558 (Genentech, dated 2021).

Test [1] has as its target T1, extracellular domain of human CD79b (human, UniProt P40259 29-159).
T1 construct: also called huCD79becd; huCD79b-ecd
T1 sequence: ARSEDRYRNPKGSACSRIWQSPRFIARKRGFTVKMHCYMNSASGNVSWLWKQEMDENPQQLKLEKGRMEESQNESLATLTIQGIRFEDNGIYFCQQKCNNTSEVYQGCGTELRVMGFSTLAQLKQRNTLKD
The test can be described thus: phage selection, Fab on phage, plate-bound huCD79becd.

In test [2] the target is T2, human CD79b on the cell surface (human, UniProt P40259 29-229).
T2 construct: In the Scatchard analysis the BJAB line also stably expressed cynomolgus CD79b; also called PRO36249; endogenous human CD79b on DoHH-2, BJAB and BJAB-luciferase cells
T2 sequence: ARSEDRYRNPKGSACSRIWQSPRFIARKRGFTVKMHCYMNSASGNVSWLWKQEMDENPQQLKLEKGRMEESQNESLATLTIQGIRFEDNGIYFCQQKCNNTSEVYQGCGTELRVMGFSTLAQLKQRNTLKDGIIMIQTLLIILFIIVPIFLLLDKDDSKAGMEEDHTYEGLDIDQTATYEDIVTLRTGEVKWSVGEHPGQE
The test can be described thus: FACS on DoHH-2 cells, Fab, PE anti-human kappa detection.

Test [3] concerns the target T1, extracellular domain of human CD79b. The test can be described thus: SPR (Biacore), IgG, immobilized huCD79becd. (In general: In SPR one partner is held on a chip, and binding of the other changes the refractive index at the surface.)
Test [4] addresses T2, human CD79b on the cell surface. The test can be described thus: FACS on BJAB-luciferase cells, PE anti-human IgG detection.
Test [5] shares this target. The test can be described thus: Scatchard analysis, IgG, BJAB cells stably expressing cynomolgus CD79b and endogenous human CD79b.
For test [6] the target is unchanged. The test can be described thus: FACS on BJAB-luciferase cells, PE anti-human detection.

B1: huMA79b H3-10 (Fab) (Fab, name in Kabat numbering, V domains shown)
VH: EVQLVESGGGLVQPGGSLRLSCAASGYTFSSYWIEWVRQAPGKGLEWVGEILPGGGDTNYNEIFKGRFTISADTSKNTAYLQMNSLRAEDTAVYYCTRRVPIRLDYWGQGTLVTVSS
VL: DIQMTQSPSSLSASVGDRVTITCKASQSVDYDGDSFLNWYQQKPGKAPKLLIYAASNLESGVPSRFSGSGSGTDFTLTISSLQPEDFATYYCQQSNEDPLTFGQGTKVEIKR
notes: Fab on phage in the selection; purified Fab in FACS; rest as huMA79b graft; also called H3-10 mutation
Take B1: the binding result in test [1] and in test [2] was “binds” each time.

B2: huMA79b graft variant SEQ ID NO: 106 (Fab, name in Kabat numbering, V domains shown)
VH: EVQLVESGGGLVQPGGSLRLSCAASGYTFSSYWIEWVRQAPGKGLEWVGEILPGGGDTNYNEIFKGRFTISADTSKNTAYLQMNSLRAEDTAVYYCTRRIPVYFDYWGQGTLVTVSS
VL: DIQMTQSPSSLSASVGDRVTITCKASQSVDYDGDSFLNWYQQKPGKAPKLLIYAASNLESGVPSRFSGSGSGTDFTLTISSLQPEDFATYYCQQSNEDPLTFGQGTKVEIKR
notes: Fab on phage; rest as huMA79b graft
For the molecule B2, the binding result in test [1] is listed as “binds”.

B3: huMA79b graft variant SEQ ID NO: 101 (Fab, name in Kabat numbering, V domains shown)
VH: EVQLVESGGGLVQPGGSLRLSCAASGYTFSSYWIEWVRQAPGKGLEWVGEILPGGGDTNYNEIFKGRFTISADTSKNTAYLQMNSLRAEDTAVYYCTRRVPVRFDYWGQGTLVTVSS
VL: DIQMTQSPSSLSASVGDRVTITCKASQSVDYDGDSFLNWYQQKPGKAPKLLIYAASNLESGVPSRFSGSGSGTDFTLTISSLQPEDFATYYCQQSNEDPLTFGQGTKVEIKR
notes: as for B2
With B3, the binding result in test [1] is “binds”.

B4: huMA79b graft variant SEQ ID NO: 105 (Fab, name in Kabat numbering, V domains shown)
VH: EVQLVESGGGLVQPGGSLRLSCAASGYTFSSYWIEWVRQAPGKGLEWVGEILPGGGDTNYNEIFKGRFTISADTSKNTAYLQMNSLRAEDTAVYYCTRRRPVCLDYWGQGTLVTVSS
VL: DIQMTQSPSSLSASVGDRVTITCKASQSVDYDGDSFLNWYQQKPGKAPKLLIYAASNLESGVPSRFSGSGSGTDFTLTISSLQPEDFATYYCQQSNEDPLTFGQGTKVEIKR
notes: as for B2
Consider B4, for which, in test [1], the binding result is reported as “binds”.

B5: huMA79b graft variant SEQ ID NO: 102 (Fab, name in Kabat numbering, V domains shown)
VH: EVQLVESGGGLVQPGGSLRLSCAASGYTFSSYWIEWVRQAPGKGLEWVGEILPGGGDTNYNEIFKGRFTISADTSKNTAYLQMNSLRAEDTAVYYCTRRVPVFLDYWGQGTLVTVSS
VL: DIQMTQSPSSLSASVGDRVTITCKASQSVDYDGDSFLNWYQQKPGKAPKLLIYAASNLESGVPSRFSGSGSGTDFTLTISSLQPEDFATYYCQQSNEDPLTFGQGTKVEIKR
notes: as for B2
Turning to B5, the binding result in test [1] is recorded as “binds”.

B6: huMA79b graft variant H1-1 (Fab) (Fab, name in Kabat numbering, V domains shown)
VH: EVQLVESGGGLVQPGGSLRLSCAASGYPFNRYWINWVRQAPGKGLEWVGEILPGGGDTNYNEIFKGRFTISADTSKNTAYLQMNSLRAEDTAVYYCTRRVPVYFDYWGQGTLVTVSS
VL: DIQMTQSPSSLSASVGDRVTITCKASQSVDYDGDSFLNWYQQKPGKAPKLLIYAASNLESGVPSRFSGSGSGTDFTLTISSLQPEDFATYYCQQSNEDPLTFGQGTKVEIKR
notes: Fab on phage in the selection; purified Fab in FACS; rest as huMA79b graft; also called H1-1 mutation
For the molecule B6, the binding result in test [1] and in test [2] was “binds” each time.

B7: MA79b-grafted humanized antibody variant 18 (antibody, human IgG1, kappa)
light: DIQLTQSPSSLSASVGDRVTITCKASQSVDYDGDSFLNWYQQKPGKAPKLLIYAASNLESGVPSRFSGSGSGTDFTLTISSLQPEDFATYYCQQSNEDPLTFGQGTKVEIKRTVAAPSVFIFPPSDEQLKSGTASVVCLLNNFYPREAKVQWKVDNALQSGNSQESVTEQDSKDSTYSLSSTLTLSKADYEKHKVYACEVTHQGLSSPVTKSFNRGEC
heavy: not shown
notes: IgG; also called huMA79b.v18; MA79b.v18
B7: the “fold improvement in dimeric binding compared to variant 17” value in test [3] is 2 fold.

B8: thio huMA79b.v18-HC(A118C)-BMPEO-DM1 (antibody, human IgG1, kappa)
heavy: not shown
light: DIQLTQSPSSLSASVGDRVTITCKASQSVDYDGDSFLNWYQQKPGKAPKLLIYAASNLESGVPSRFSGSGSGTDFTLTISSLQPEDFATYYCQQSNEDPLTFGQGTKVEIKRTVAAPSVFIFPPSDEQLKSGTASVVCLLNNFYPREAKVQWKVDNALQSGNSQESVTEQDSKDSTYSLSSTLTLSKADYEKHKVYACEVTHQGLSSPVTKSFNRGEC
modifications: BMPEO-DM1 on the engineered Cys at EU position 118 (sequential 118; Kabat 114)
notes: Cysteine engineered antibody drug conjugate; also called huMA79b.v18-HC(A118C) thioMAb-BMPEO-DM1
Regarding B8, in test [4], the binding result is listed as “binds”.

B9: thio huMA79b.v18-HC(A118C)-MC-MMAF (antibody, human IgG1, kappa)
heavy: not shown
light: DIQLTQSPSSLSASVGDRVTITCKASQSVDYDGDSFLNWYQQKPGKAPKLLIYAASNLESGVPSRFSGSGSGTDFTLTISSLQPEDFATYYCQQSNEDPLTFGQGTKVEIKRTVAAPSVFIFPPSDEQLKSGTASVVCLLNNFYPREAKVQWKVDNALQSGNSQESVTEQDSKDSTYSLSSTLTLSKADYEKHKVYACEVTHQGLSSPVTKSFNRGEC
modifications: MC-MMAF on the engineered Cys at EU position 118 (sequential 118; Kabat 114)
notes: Cysteine engineered antibody drug conjugate
For B9, in test [4], the binding result is “binds”.

B10: thio huMA79b.v18-HC(A118C)-MC-vcPAB-MMAE (antibody, human IgG1, kappa)
heavy: not shown
light: DIQLTQSPSSLSASVGDRVTITCKASQSVDYDGDSFLNWYQQKPGKAPKLLIYAASNLESGVPSRFSGSGSGTDFTLTISSLQPEDFATYYCQQSNEDPLTFGQGTKVEIKRTVAAPSVFIFPPSDEQLKSGTASVVCLLNNFYPREAKVQWKVDNALQSGNSQESVTEQDSKDSTYSLSSTLTLSKADYEKHKVYACEVTHQGLSSPVTKSFNRGEC
modifications: MC-val-cit-PAB-MMAE on the engineered Cys at EU position 118 (sequential 118; Kabat 114)
notes: as for B9
Turning to B10, the binding result in test [4] is recorded as “binds”.

B11: MA79b-grafted humanized antibody variant 32 (antibody, human IgG1, kappa, V domains shown)
VH: EVQLVESGGGLVQPGGSLRLSCAASGYTFSSYWIEWVRQAPGKGLEWIGEILPGGGDTNYNEIFKGRATFSADTSKNTAYLQMNSLRAEDTAVYYCTRRVPIRLDYWGQGTLVTVSS
VL: DIQLTQSPSSLSASVGDRVTITCKASQSVDYSGDSFLNWYQQKPGKAPKLFIYAASNLESGVPSRFSGSGSGTDFTLTISSLQPEDFATYYCQQSNEDPLTFGQGTKVEIKR
notes: also called huMA79b.v32; MA79b.v32
With B11, the Kd in test [5] stood at 240 pM.

B12: thio huMA79b.v28-HC(A118C)-BMPEO-DM1 (antibody, human IgG1, kappa)
heavy: not shown
light: DIQLTQSPSSLSASVGDRVTITCKASQSVDYEGDSFLNWYQQKPGKAPKLLIYAASNLESGVPSRFSGSGSGTDFTLTISSLQPEDFATYYCQQSNEDPLTFGQGTKVEIKRTVAAPSVFIFPPSDEQLKSGTASVVCLLNNFYPREAKVQWKVDNALQSGNSQESVTEQDSKDSTYSLSSTLTLSKADYEKHKVYACEVTHQGLSSPVTKSFNRGEC
modifications: BMPEO-DM1 on the engineered Cys at EU position 118 (sequential 118; Kabat 114)
notes: as for B9
For B12, the binding result in test [6] is recorded as “binds”.

B13: MA79b-grafted humanized antibody variant 17 (antibody, human IgG1, kappa, V domains shown)
VH: EVQLVESGGGLVQPGGSLRLSCAASGYTFSSYWIEWVRQAPGKGLEWIGEILPGGGDTNYNEIFKGRATFSADTSKNTAYLQMNSLRAEDTAVYYCTRRVPVYFDYWGQGTLVTVSS
VL: DIQLTQSPSSLSASVGDRVTITCKASQSVDYDGDSFLNWYQQKPGKAPKLLIYAASNLESGVPSRFSGSGSGTDFTLTISSLQPEDFATYYCQQSNEDPLTFGQGTKVEIKR
notes: IgG; also called huMA79b.v17
Regarding B13, in test [3], the binding result is recorded as “binds”.

B14: thio huMA79b.v28-HC(A118C)-MCvcPAB-MMAE (antibody, human IgG1, kappa)
heavy: not shown
light: DIQLTQSPSSLSASVGDRVTITCKASQSVDYEGDSFLNWYQQKPGKAPKLLIYAASNLESGVPSRFSGSGSGTDFTLTISSLQPEDFATYYCQQSNEDPLTFGQGTKVEIKRTVAAPSVFIFPPSDEQLKSGTASVVCLLNNFYPREAKVQWKVDNALQSGNSQESVTEQDSKDSTYSLSSTLTLSKADYEKHKVYACEVTHQGLSSPVTKSFNRGEC
modifications: MC-val-cit-PAB-MMAE on the engineered Cys at EU position 118 (sequential 118; Kabat 114)
notes: Cysteine engineered antibody drug conjugate; also called thio huMA79b.v28-HC(A118C)-MC-val-cit-PAB-MMAE
As to B14, the binding result in test [6] is “binds”.

B15: thio huMA79b.v28-HC(A118C)-MC-MMAF (antibody, human IgG1, kappa)
heavy: not shown
light: DIQLTQSPSSLSASVGDRVTITCKASQSVDYEGDSFLNWYQQKPGKAPKLLIYAASNLESGVPSRFSGSGSGTDFTLTISSLQPEDFATYYCQQSNEDPLTFGQGTKVEIKRTVAAPSVFIFPPSDEQLKSGTASVVCLLNNFYPREAKVQWKVDNALQSGNSQESVTEQDSKDSTYSLSSTLTLSKADYEKHKVYACEVTHQGLSSPVTKSFNRGEC
modifications: MC-MMAF on the engineered Cys at EU position 118 (sequential 118; Kabat 114)
notes: as for B9
Consider B15, for which the binding result in test [6] was “binds”.

The term Kd denotes a measure of binding affinity in units of concentration. A higher Kd goes with weaker binding.
